In paper PMC4383860, “Crystal structure of human persulfide dioxygenase: structural basis of ethylmalonic encephalopathy” (Human Molecular Genetics, 2015):

Tests used:
[1] = molecular target: the molecule itself; experiment: native MS + SEC-MALS; dimer to monomer ratio told for both methods together; self-association, dimer
[2] = molecular target: the molecule itself; experiment: SEC-MALS; printed as MALS (multi-angle laser light scattering) of hETHE1 after purification, two peaks; self-association
[3] = molecular target: the molecule itself; experiment: native MS; non-denaturing electrospray soft-ionization MS; 15 µM hETHE1 in 15 mM ammonium acetate buffer (pH 7.5); cone voltage 80 V; self-association, dimer

B1: human ethylmalonic encephalopathy protein 1 (hETHE1), lacking its 20 residue N-terminal mitochondrial targeting sequence (enzyme, UniProt O95571 21-254, looked up)
chain: APILLRQMFEPVSCTFTYLLGDRESREAVLIDPVLETAPRDAQLIKELGLRLLYAVNTHCHADHITGSGLLRSLLPGCQSVISRLSGAQADLHIEDGDSIRFGRFALETRASPGHTPGCVTFVLNDHSMAFTGDALLIRGCGRTDFQQGCAKTLYHSVHEKIFTLPGDCLIYPAHDYHGFTVSTVEEERTLNPRLTLSCEEFVKIMGNLNLPKPQQIDFAVPANMRCGVQTPTA
modifications: Cys247 refined as cysteinyl sulfinic acid (CSD247) in the crystal; +30 Da seen only in the dimer by non-denaturing mass spectrometry
notes: the start at residue 21 is worked out from that statement; Printed masses: monomer 26 116 Da, dimer 52 232 Da; also called human persulfide dioxygenase; sulphur dioxygenase; not shown: His6, N-terminal, cleaved
[1]
  dimer to monomer ratio: ~10
[2]
  stoichiometry N: 4
[3]
  stoichiometry N: 2
